Experimental findings from patent publication US20140017764 are described below.

B1: TEV-PE10, purified (protein)
chain: HHHHHHSLFKGPRDYNPISSTICHLTNESDGHTTSLYGIGFGPFIITNKHLFRRNNGTLLVQSLHGVFKVKNTTTLQQHLIDGRDMIIIRMPKDFPPFPQKLKFREPQREERICLVTTNFQTKRMSSMVSDTSCTFPSSDGIFWKHWIQTKRGQCGSPLVSTRDGFIVGIHSASNFANTNKYFTSVPKNFMELLTNQEAQQWVSGWRLNADSVLWGGHKVFIPKPEEPFQPVKEATQLMN
B2: wild-type TEV protease (TEV-P), purified (protein)
chain: HHHHHHSLFKGPRDYNPISSTICHLTNESDGHTTSLYGIGFGPFIITNKHLFRRNNGTLLVQSLHGVFKVKNTTTLQQHLIDGRDMIIIRMPKDFPPFPQKLKFREPQREERICLVTTNFQTKSMSSMVSDTSCTFPSSDGIFWKHWIQTKDGQCGSPLVSTRDGFIVGIHSASNFTNTNNYFTSVPKNFMELLTNQEAQQWVSGWRLNADSVLWGGHKVFMPKPEEPFQPVKEATQLMN
B3: TEV-PH21, purified (protein)
chain: HHHHHHSLFKGPRDYNPISSAICHLTNESDGHTTSLYGIGFGPFIITNKHLFRRNNGTLLVQSLHGVFKVKNTTTLQQHLIDGRDMIIIRMPKDFPPFPQKLKFREPQREERICLVTTNFQTKSMSSMVSDTSCTFPSSDGIFWKHWIQAKPGQCGCPLVSTRDGFIVGIHTAANFANTNNYFTSVPKNFMELLTNQEAQQWVSGWRLNADSVLWGGHKVFMPKPEEPFQPVKEATQLMN

The data set addresses […] peptide substrate.
Take B1: the KM (commonly the substrate concentration at which the rate is half of its maximum) was 120 µM; the kcat (in general, the number of substrate molecules converted per active site and unit of time at saturation) amounted to 0.0194 s⁻¹; the kcat/KM (usually the turnover number divided by the Michaelis constant) amounted to 160 M⁻¹ s⁻¹.

With B2, the KM came to 110 µM, the turnover number (kcat) stood at 0.13 s⁻¹ and the kcat/KM was determined as 1200 M⁻¹ s⁻¹.

As to B3, the KM was 820 µM, the kcat came to 0.0171 s⁻¹ and the kcat/KM is 20.7 M⁻¹ s⁻¹.
